Laboratory results taken from US20230406926A1 (Kyowa Kirin, published 2023).
Values belong to the binder of their own block, whether it stands above or below them.

Columns and labels:
CD3 on T cells = biological target: T1, CD3 on T cells (UniProt P07766 23-207, limits assumed); assay: flow cytometry on T cells by the method of Example 3, fluorescently labeled secondary antibody
T1 construct: whole, on cells; also called CD3 on the surface of the membrane
Protocol: Each of the various antibodies was added to T cells at a final concentration of 10 g/mL and allowed to react at 4° C. for 1 hour. After washing, Goat anti-Human IgG F(ab)₂-FITC (Acris Antibodies GmbH) diluted to 30 μg/mL was added thereto and allowed to react at 4° C. for 1 hour.
As a positive control, 30 μg/mL of an anti-CD3 antibody OKT-3 (abcam. plc) was used as the primary antibody, and Goat anti-mouse IgG F(ab)₂-FITC (Dako, Inc.) was used as the secondary antibody. After washing, the MFI of the antibody bound to T cells was measured with a flow cytometer Cytomics FC 500 MPL (Beckman Coulter, Inc.).

HER2 = biological target: T2, HER2 (human, UniProt P04626 23-1255); assay: flow cytometry competition by the method of Example 3 (SK-BR-3 cells): inhibition of the binding of fluorescently labeled Trastuzumab
T2 construct: whole, on cells; also called HER2 on the surface of the cell membrane
Protocol: Subsequently, binding inhibition analysis by flow cytometry was performed using an HER2-positive human breast cancer cell line SK-BR-3 (ATCC HTB-30).
As a negative control, human serum-derived IgG1/kappa (Millipore, Inc.) at the same concentration was added. After washing, mean fluorescent intensity (MFI) of the binding of SK-BR-3 cells was measured with a flow cytometer Cytomics FC 500 MPL (Beckman Coulter, Inc.).

[1] = biological target: T3, His-tag-fused human CD3D&E protein (Sino Biological, Inc.) (human, UniProt P07766 23-126; P04234 22-105); assay: SPR (Biacore), His-tagged human CD3D&E captured on anti-tetra His antibody, antibody as analyte, single cycle kinetics
T3 construct: also called soluble CD3; human CD3 protein
T3 sequence (P07766 23-126, chain 1 of 2): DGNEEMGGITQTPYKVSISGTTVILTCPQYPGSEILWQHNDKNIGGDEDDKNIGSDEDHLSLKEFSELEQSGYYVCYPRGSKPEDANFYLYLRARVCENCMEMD
T3 sequence (P04234 22-105, chain 2 of 2): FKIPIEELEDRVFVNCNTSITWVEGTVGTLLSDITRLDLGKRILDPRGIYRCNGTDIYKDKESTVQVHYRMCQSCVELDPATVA
Protocol: The binding affinity of these antibodies for CD3 was measured by Biacore (GE Healthcare). Specifically, an anti-tetra His mouse antibody (QIAGEN NV.) was immobilized on a CM5 sensor chip at approximately 8000 RU using an amine coupling kit (GE Healthcare). As the coupling buffer, 10 mM sodium acetate (pH 4.5) was used. As the ligand, a His-tag-fused human CD3D&E protein (Sino Biological, Inc.) dissolved in HBS-EP(+) buffer at 5 μg/mL was captured at 5 μL/min for 120 seconds.
Subsequently, bispecific antibody solutions obtained by 2-fold serial dilution for 5 times from 10 μg/mL was added as the analyte at a flow rate of 30 μL/min, and binding reaction between each antibody and the analyte was measured for 2 minutes, and a dissociation reaction was measured for 5 minutes. The measurement was performed by single cycle kinetics method. The obtained sensorgram was analyzed using Bia Evaluation Software (GE Healthcare), and the kinetic constant of each antibody was calculated.

[2] = biological target: cynomolgus monkey CD3 on HSC-F cells (cynomolgus monkey, UniProt Q95LI5 22-198); assay: flow cytometry, hybridoma supernatant on HSC-F cells, Alexa 647 anti-human IgG
Chain of cynomolgus monkey CD3 on HSC-F cells (Q95LI5 22-198): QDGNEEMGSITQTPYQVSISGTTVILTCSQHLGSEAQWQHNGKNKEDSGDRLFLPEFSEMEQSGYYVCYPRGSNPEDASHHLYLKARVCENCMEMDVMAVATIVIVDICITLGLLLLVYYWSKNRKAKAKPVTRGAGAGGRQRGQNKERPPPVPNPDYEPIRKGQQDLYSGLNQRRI
Protocol: The screening of anti-CD3 antibody-producing hybridomas was performed by flow cytometry. Cells cultured in a flask for floating cell culture were collected, washed twice with PBS, and then suspended in a staining buffer (PBS containing 0.02% EDTA, 0.05% NaN₃, and 1% BSA), and prepared so that the viable cell count was 2.0 to 5.0×10⁵ cells/50 μL. […] As negative control cells, unstained KHYG-1 cells (JCRB cell bank JCRB156) were used.
These three types of cells were mixed in equal amounts, and the resultant was dispensed into a 96-well plate at 50 μL/well, and incubated on ice for 30 minutes, and then, an equal amount of the undiluted hybridoma supernatant solution was added thereto and mixed therewith, and placed at 4° C. for 30 minutes. […] After performing centrifugation of the cells and washing with a staining buffer twice, the cells were suspended in a staining buffer, and the fluorescent intensity was measured with a flow cytometer CyAn ADP (Beckman Coulter, Inc.).

T1 sequence (P07766 23-207 limits assumed): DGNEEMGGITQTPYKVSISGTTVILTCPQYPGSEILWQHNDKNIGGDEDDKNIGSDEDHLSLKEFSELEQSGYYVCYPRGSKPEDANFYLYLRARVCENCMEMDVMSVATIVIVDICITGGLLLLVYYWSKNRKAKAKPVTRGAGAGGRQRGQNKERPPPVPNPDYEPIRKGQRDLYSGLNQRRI

B1: DNP2_IgG1 (DF) (antibody, V domains shown)
VH: QVQLVQSGAEVKKPGASVKVSCKASGYTFTSYGISWVRQAPGQGLEWMGWISAYNGNTNYAQKLQGRVTMTTDTSTSTAYMELRSLRSDDTAVYYCARWDSSSWSFDYWGQGTLVTVSS
VL: DIQMTQSPSSLSASVGDRVTITCRASQGISSWLAWYQQKPEKAPKSLIYAASSLQSGVPSRFSGSGSGTDFTLTISSLQPEDFATYYCQQYNSYPYTFGQGTKLEIKR
notes: also called IgG1-type anti-2,4-dinitrophenyl (DNP) antibody, clone DNP2
binding result (CD3 on T cells): no binding (tested: 10 nM)
binding result (HER2): no binding

B2: 4D5mut_scSP34_IgG1 (DF) (bispecific antibody)
chain 1: EVQLVESGGGLVQPKGSLKLSCAASGFTFNTYAMNWVRQAPGKGLEWVARIRSKYNNYATYYADSVKDRFTISRDDSQSILYLQMNNLKTEDTAMYYCVRHGNFGNSYVSWFAYWGQGTLVTVSSGGGGSGGGGSGGGGSQAVVTQESALTTSPGETVTLTCRSSTGAVTTSNYANWVQEKPDHLFTGLIGGTNKRAPGVPARFSGSLIGDKAALTITGAQTEDEAIYFCALWYSNLWVFGGGTKLTVLGTKYGPPCPPCPAPEFEGGPSVFLFPPKPKDTLMISRTPEVTCVVVDVSQEDPEVQFNWYVDGVEVHNAKTKPREEQFNSTYRVVSVLTVLHQDWLNGKEYKCKVSNKGLPSSIEKTISKAKGQPREPQVCTLPPSQEEMTKNQVSLSCAVKGFYPSDIAVEWESNGQPENNYKTTPPVLDSDGSFFLVSKLTVDKSRWQEGNVFSCSVMHEALHNRFTQKSLSLSLGK
chain 2: not shown
chain 3: not shown
Kd [1]: 12.6 nM

Other lines, results leading:

Kd [1]: 108 nM
B3: 4D5mut_scSP34(H05′)_IgG1 (DF) (bispecific antibody)
chain 1: EVQLVESGGGLVQPKGSLKLSCAASGFTFNTYAMNWVRQAPGKGLEWVARIRSKYNNYATYYADSVKDRFTISRDDSQSILYLQMNNLKTEDTAMYYCVRHGNFGNSDVSWFAYWGQGTLVTVSSGGGGSGGGGSGGGGSQAVVTQESALTTSPGETVTLTCRSSTGAVTTSNYANWVQEKPDHLFTGLIGGTNKRAPGVPARFSGSLIGDKAALTITGAQTEDEAIYFCALWYENLWVFGGGTKLTVLGTKYGPPCPPCPAPEFEGGPSVFLFPPKPKDTLMISRTPEVTCVVVDVSQEDPEVQFNWYVDGVEVHNAKTKPREEQFNSTYRVVSVLTVLHQDWLNGKEYKCKVSNKGLPSSIEKTISKAKGQPREPQVCTLPPSQEEMTKNQVSLSCAVKGFYPSDIAVEWESNGQPENNYKTTPPVLDSDGSFFLVSKLTVDKSRWQEGNVFSCSVMHEALHNRFTQKSLSLSLGK
chain 2: not shown
chain 3: not shown

binding result [2]: binds
B4: anti-CD3 monoclonal antibody KM14 (antibody, V domains shown)
VH: QVQLVESGGGVVQPGRSLRLSCEASGFTFSSHGMHWVRQAPGKGLEWVASIWYDGSKKYYADSVKGRFTISRDNSKNTLDLQMNSLRAEDTAVYYCAKTLYYYGSERAHGLDVWGQGTTVTVSS
VL: AIQLTQSPSSLSASVGDRVTITCRASQGISSALAWYQQKPGKAPNLLIYDASSLESGVPSRFSGSGSGTDFTLTISSLQPEDFATYYCQQFNSYPRTFGQGTKVEIK
notes: also called hybridoma clone KM14
